In assay [1] the target is T1, HLA-A*0201 class I monomer of the iTopia Epitope Discovery System. Briefly: iTopia binding ED50.
Assay [2] addresses T1, HLA-A*0201 class I monomer of the …. Briefly: iTopia binding ED50. The source holds these as a separate data set.
The target is the same in assay [3]. Briefly: iTopia binding ED50. This is another data set of the same source.
For assay [4] the target is unchanged. Briefly: iTopia binding ED50. This is another data set of the same source.
For assay [5] the target is unchanged. Briefly: iTopia binding ED50. This is another data set of the same source.
Assay [6] shares this target. Briefly: iTopia peptide binding (ED50).

The EC50 is the concentration that produces a half-maximal response. Lower therefore signals higher potency in that assay.

B1: PSMA288-297 analog, Leu at PΩ (peptide)
peptide: GLPSIPVHPL
Regarding B1, a half-maximal effect in assay [1] (EC50) was put at 1170 nM.

B2: PSMA288-297 analog, Ala at P1, Val at P2, Val at PΩ (peptide)
peptide: AVPSIPVHPV
With B2, the EC50 in assay [2] was determined as 1080 nM.

B3: PSMA288-297 analog, Gln at P2 (peptide)
peptide: GQPSIPVHPI
The molecule B3 returned an EC50 in assay [3] of 669 nM.

B4: PSMA288-297 analog, Ala at P1 and Val at PΩ (peptide)
peptide: ALPSIPVHPV
Turning to B4, the concentration for a half-maximal effect (EC50) in assay [4] amounted to 5970 nM.

B5: PSMA288-297 (peptide)
peptide: GLPSIPVHPI
Regarding B5, the EC50 in assay [3], in assay [5] and in assay [2] was 1330 nM each time.

B6: PSMA288-297 analog, Met at P2 (peptide)
peptide: GMPSIPVHPI
B6 returned an EC50 in assay [3] of 1070 nM.

B7: PSMA288-297 analog, Leu at PΩ-1 (peptide)
peptide: GLPSIPVHLI
Molecule B7 came in with an EC50 in assay [1] of 586 nM.

B8: PSMA288-297 analog, Ala at P1, Trp at P3, Val at PΩ (peptide)
peptide: ALWSIPVHPV
For B8, it took 494 nM to reach a half-maximal effect in assay [6] (EC50).

B9: PSMA288-297 analog, Ser at PΩ-1 (peptide)
peptide: GLPSIPVHSI
Take B9: the EC50 in assay [1] was 447 nM.

B10: PSMA288-297 analog, Ala at PΩ-1 (peptide)
peptide: GLPSIPVHAI
For B10, the midpoint of the response in assay [1], the EC50, lay at 816 nM.

B11: PSMA288-297 analog, Val at P2 (peptide)
peptide: GVPSIPVHPI
In the case of B11, in assay [3], the concentration for a half-maximal effect (EC50) worked out at 2410 nM.

B12: PSMA288-297 analog, Thr at PΩ-1 (peptide)
peptide: GLPSIPVHTI
Turning to B12, the response in assay [1] was half-maximal at 483 nM (EC50).

(Values after patent publication US20130195901A1 (published 2013).)
